Paper PMC12023411, “Quaternary stabilization of a GH2 β‐galactosidase from the psychrophile A. ikkensis, a flexible and unstable dimeric enzyme” (Protein Science : A Publication of the Protein Society, 2025)
“And” between values parts separate entries of the source, which are not always exact repeats. Identical values can stand only once.

Tests used:
EcLac = target: T1, EcLac (Escherichia coli, UniProt P00722); test: ONPG hydrolysis, absorbance […] nm; assay type: biochemical; conditions: PBS pH 7.0, 0.1 mM MgCl2, 5 mM ONPG, 8 nM enzyme; temperature series
T1 construct: gene lacZ; commercial enzyme purchased from Sigma, lyophilized; homotetramer

[1] = target: AiLac triple mutant (V648E, F702L, T742V) (Alkalilactibacillus ikkensis); test: flow-induced dispersion analysis (FIDA); 125 nM (WT) or 60 nM (TM) Alexa Fluor 488-labelled protein as indicator, pre-mixed with unlabelled protein of the same kind, 4 h at 4°C, buffer A; Rh fitted to a monomer-dimer model; constant of dimer to monomers
[2] = target: AiLac triple mutant (V648E, F702L, T742V) (Alkalilactibacillus ikkensis); test: mass photometry; TwoMP mass photometer, 21°C; 0.25 μL of a 1 mg/mL (8.4 μM) stock added to 19.75 μL buffer, about 100 nM final
[3] = target: GH2 β-galactosidase from Alkalilactibacillus ikkensis (AiLac), wild type (Alkalilactibacillus ikkensis); test: DSF (melting temperature against protein concentration); apparent; SEC-purified AiLac at 3.9 μg/mL to 4 mg/mL, 0.5°C/min, buffer A; tm fitted to the monomer-dimer equation (5); dimer to monomers
[4] = target: GH2 β-galactosidase from Alkalilactibacillus ikkensis (AiLac), wild type (Alkalilactibacillus ikkensis); test: SAXS; 0.40 mg/mL AiLac in 50 mM bis-tris propane, pH 7.0-8.0, 20°C; mass from I(0)
[5] = target: GH2 β-galactosidase from Alkalilactibacillus ikkensis (AiLac), wild type (Alkalilactibacillus ikkensis); test: flow-induced dispersion analysis (FIDA); 125 nM (WT) or 60 nM (TM) Alexa Fluor 488-labelled protein as indicator, pre-mixed with unlabelled protein of the same kind, 4 h at 4°C, buffer A; Rh fitted to a monomer-dimer model; constant of dimer to monomers
[6] = target: GH2 β-galactosidase from Alkalilactibacillus ikkensis (AiLac), wild type (Alkalilactibacillus ikkensis); test: as above; remark: listed apart in the source
[7] = target: GH2 β-galactosidase from Alkalilactibacillus ikkensis (AiLac), wild type (Alkalilactibacillus ikkensis); test: SEC-MALS; Superdex 200 10/300 GL Increase, buffer A (PBS + 0.1 mM MgCl2, pH 7.0), room temperature, 0.5 mL/min, 50 μL of 1.5 mg/mL Ni-NTA purified protein loaded
[8] = target: GH2 β-galactosidase from Alkalilactibacillus ikkensis (AiLac), wild type (Alkalilactibacillus ikkensis); test: SAXS; second peak of the SEC purification, 1.15 mg/mL, buffer A, 20°C, 1800 s; mass from I(0)

T1 sequence (P00722 whole entry): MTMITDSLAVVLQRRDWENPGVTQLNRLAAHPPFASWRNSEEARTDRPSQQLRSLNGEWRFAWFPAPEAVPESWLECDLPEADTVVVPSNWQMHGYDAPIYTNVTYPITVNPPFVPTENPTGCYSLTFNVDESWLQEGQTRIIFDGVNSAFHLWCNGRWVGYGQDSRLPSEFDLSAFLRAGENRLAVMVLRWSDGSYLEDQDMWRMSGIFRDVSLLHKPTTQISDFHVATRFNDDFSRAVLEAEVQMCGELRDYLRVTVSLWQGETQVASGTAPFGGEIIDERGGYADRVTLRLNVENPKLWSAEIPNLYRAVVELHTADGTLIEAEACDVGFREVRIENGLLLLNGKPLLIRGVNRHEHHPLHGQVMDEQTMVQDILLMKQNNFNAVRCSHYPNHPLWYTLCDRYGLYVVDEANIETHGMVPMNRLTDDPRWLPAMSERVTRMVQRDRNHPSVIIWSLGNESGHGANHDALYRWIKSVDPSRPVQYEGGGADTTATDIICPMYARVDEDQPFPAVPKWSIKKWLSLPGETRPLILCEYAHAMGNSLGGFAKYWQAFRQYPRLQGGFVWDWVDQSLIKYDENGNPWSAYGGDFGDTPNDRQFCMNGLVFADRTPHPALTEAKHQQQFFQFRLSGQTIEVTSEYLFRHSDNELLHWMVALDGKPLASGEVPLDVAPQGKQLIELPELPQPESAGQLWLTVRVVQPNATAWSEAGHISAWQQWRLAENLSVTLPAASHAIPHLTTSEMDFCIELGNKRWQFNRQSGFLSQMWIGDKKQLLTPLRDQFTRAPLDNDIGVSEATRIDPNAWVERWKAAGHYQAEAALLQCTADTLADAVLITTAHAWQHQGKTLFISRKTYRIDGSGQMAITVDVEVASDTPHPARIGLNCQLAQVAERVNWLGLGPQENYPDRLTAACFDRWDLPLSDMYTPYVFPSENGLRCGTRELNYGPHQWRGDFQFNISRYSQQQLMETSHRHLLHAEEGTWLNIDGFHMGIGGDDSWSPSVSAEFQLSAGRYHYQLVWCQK

In the case of `O=[N+]([O-])c1ccccc1O[C@@H]1O[C@H](CO)[C@H](O)[C@H](O)[C@H]1O` [ONPG], the specific activity (EcLac) is reported as “Activity of the AiLac and EcLac (purchased from Sigma) was assessed by hydrolysis of ONPG”.
“AiLac triple mutant (V648E, F702L, T742V) (enzyme)” was tested, and the stoichiometry N [1] was 2 and 4 and the stoichiometry N [2] was 4.
“GH2 β-galactosidase from Alkalilactibacillus ikkensis (AiLac), wild type (enzyme)” gave a Kd [3] of 150 nM, a stoichiometry N [4] of 2 and a Kd [5] of 230 nM. The stoichiometry N [5] was 2, the Kd [6] was 300 nM and the stoichiometry N [7] was 4 and 2. The stoichiometry N [8] was 1.7 monomers.
